Experimental data: patent US20220096653A1, “CONJUGATE COMPRISING LIGAND AND CEACAM5 ANTIBODY FAB FRAGMENT” (ASTELLAS PHARMA INC., priority 2019, published 2022)
Like-named read-outs stand apart in the source and are kept apart here.

What was measured:
[1] = parameters: species or system mice (BALB/c nu/nu); conditions: mouse, in vivo
Method: A Gd-labeled conjugate of the conjugate containing a peptide linker produced in one of the above Examples was administered from the tail vein of tumor-bearing mice so that the protein mass was 0.02 mg (100 μL) per animal. As the tumor-bearing mice used in the present Example, mice (BALB/c nu/nu) that were in a tumor-bearing state brought about by transplanting human colorectal cancer cell line LS174T cells (ATCC(registered trademark); CL-188) at 2.0 to 5.0×10^6 cells/mouse subcutaneously on the back before administration of the sample were used. 24 hours after administration of the sample, the mice were sacrificed, the kidneys and the tumor were removed, and the amounts of Gd in the kidneys and in the tumor were measured using ICP-MS. The present test was carried out in 3 cases in each group, and the mean value of the 3 cases was calculated. The amount of Gd contained per kidney after administration was shown as a percentage of the amount of Gd administered (% of dose/tissue), and the amount of Gd contained per g of tumor tissue was shown as a percentage of the total amount of Gd administered (% of dose/g).

[2] = mouse, in vivo
Method: (§1) A Gd-labeled conjugate of the conjugate containing a peptide linker produced in one of the above Examples was administered from the tail vein of mice (BALB/c or BALB/c nu/nu) so that the protein mass was 0.02 mg (100 μL) per animal. After about 24 hours, the mice were sacrificed and the kidneys were removed, and the amount of Gd in the kidneys was measured using ICP-MS. The present test was carried out in 3 cases in each group, the mean value of the 3 cases was calculated, and the amount of Gd contained per kidney after administration was shown as a percentage (% of dose/tissue) of the total amount of Gd administered.
(§2) Based on the percentage of the control conjugate (% of dose/tissue), the proportion of decrease in the amount of Gd contained in the kidneys of each of the conjugates having a peptide linker was determined and shown in Table 28.

[3] = Kidney accumulation evaluation test of Gd-labeled conjugates, normal mice (Example 4-1)
Method: as §1, §2

[4] = biological target: human cancer-specific MUC1 peptide (PTL 1) (human); assay: ELISA on immobilised human cancer-specific MUC1 peptide, 4-parameter fit, duplicate (Example 6-2)

Row | Molecule | EC50 [4] [nM] | Renal residual amount (tumor-bearing mice) % of dose/tissue [1] | Renal residual amount (tumor-bearing mice) Proportion of decrease [1] [%] | % of dose/tissue (amount of Gd contained per kidney) [2] | Proportion of decrease (amount of Gd contained in the kidneys) [2] [%] | other results
1 | [Gd/DOTA-NH—(CH2CH2O)3—CH2—C(═O)—NH—CH2-(1,3-Ph)-C(═O)-Met-Gly-Lys*-Z2(#N)]p-Fab^2 (conjugate) heavy: EVQLVESGGGLVQPGGSLRLSCAASGFNIRDTYMHWVRQAPGKGLEWVARIDPANGNSRYVPKFQGRFTISADTSRNTAYLQMNSLRAEDTAVYYCAPFGYYVSDYAMAYWGQGTLVTVSSASTKGPSVFPLAPSSKSTSGGTAALGCLVKDYFPEPVTVSWNSGALTSGVHTFPAVLQSSGLYSLSSVVTVPSSSLGTQTYICNVNHKPSNTKVDKKVEPKSCD light: DIQLTQSPSSLSASVGDRVTITCRAGESVDIFGVGFLHWYQQKPGKAPKLLIYRASNLESGIPSRFSGSGSRTDFTLTISSLQPEDFATYYCQQTNEDPYTFGQGTKVEIKRTVAAPSVFIFPPSDEQLKSGTASVVCLLNNFYPREAKVQWKVDNALQSGNSQESVTEQDSKDSTYSLSSTLTLSKADYEKHKVYACEVTHQGLSSPVTKSFNRGEC | – | 8.40 % of dose/tissue | 67.48 | 6.8 % of dose/tissue | 78.0 | –
2 | [Gd/DOTA-NH—CH2-(1,3-Ph)-C(═O)-Met-Gly-Lys*-Z2(#S)]p-Fab^2 (conjugate) heavy: EVQLVESGGGLVQPGGSLRLSCAASGFNIRDTYMHWVRQAPGKGLEWVARIDPANGNSRYVPKFQGRFTISADTSRNTAYLQMNSLRAEDTAVYYCAPFGYYVSDYAMAYWGQGTLVTVSSASTKGPSVFPLAPSSKSTSGGTAALGCLVKDYFPEPVTVSWNSGALTSGVHTFPAVLQSSGLYSLSSVVTVPSSSLGTQTYICNVNHKPSNTKVDKKVEPKSCD light: DIQLTQSPSSLSASVGDRVTITCRAGESVDIFGVGFLHWYQQKPGKAPKLLIYRASNLESGIPSRFSGSGSRTDFTLTISSLQPEDFATYYCQQTNEDPYTFGQGTKVEIKRTVAAPSVFIFPPSDEQLKSGTASVVCLLNNFYPREAKVQWKVDNALQSGNSQESVTEQDSKDSTYSLSSTLTLSKADYEKHKVYACEVTHQGLSSPVTKSFNRGEC | – | 12.33 % of dose/tissue | 52.26 | 12.9 % of dose/tissue | 58.3 | –
3 | [Gd/4arm-DOTA-CH2-(1,4-Ph)-NH—C(═S)—NH—CH2-(1,3-Ph)-C(═O)-Met-Gly-Lys*-Z2(#S)]p-Fab^2 (conjugate) heavy: EVQLVESGGGLVQPGGSLRLSCAASGFNIRDTYMHWVRQAPGKGLEWVARIDPANGNSRYVPKFQGRFTISADTSRNTAYLQMNSLRAEDTAVYYCAPFGYYVSDYAMAYWGQGTLVTVSSASTKGPSVFPLAPSSKSTSGGTAALGCLVKDYFPEPVTVSWNSGALTSGVHTFPAVLQSSGLYSLSSVVTVPSSSLGTQTYICNVNHKPSNTKVDKKVEPKSCD light: DIQLTQSPSSLSASVGDRVTITCRAGESVDIFGVGFLHWYQQKPGKAPKLLIYRASNLESGIPSRFSGSGSRTDFTLTISSLQPEDFATYYCQQTNEDPYTFGQGTKVEIKRTVAAPSVFIFPPSDEQLKSGTASVVCLLNNFYPREAKVQWKVDNALQSGNSQESVTEQDSKDSTYSLSSTLTLSKADYEKHKVYACEVTHQGLSSPVTKSFNRGEC | – | – | – | – | – | Proportion of decrease (amount of Gd contained in the kidneys) ([3]; based on control conjugate Ex-No. 47, about 24 hours): 72.9%; % of dose/tissue (amount of Gd contained per kidney) ([3]; tail vein, 0.02 mg protein per animal, about 24 hours, ICP-MS, mean of 3 cases): 8.4 % of dose/tissue
4 | [Gd/DOTA-NH—(CH2CH2O)3—CH2—C(═O)—NH—CH2-(1,3-Ph)-C(═O)-Met-Gly-Lys*-Z2(#S)]p-Fab^2 (conjugate) heavy: EVQLVESGGGLVQPGGSLRLSCAASGFNIRDTYMHWVRQAPGKGLEWVARIDPANGNSRYVPKFQGRFTISADTSRNTAYLQMNSLRAEDTAVYYCAPFGYYVSDYAMAYWGQGTLVTVSSASTKGPSVFPLAPSSKSTSGGTAALGCLVKDYFPEPVTVSWNSGALTSGVHTFPAVLQSSGLYSLSSVVTVPSSSLGTQTYICNVNHKPSNTKVDKKVEPKSCD light: DIQLTQSPSSLSASVGDRVTITCRAGESVDIFGVGFLHWYQQKPGKAPKLLIYRASNLESGIPSRFSGSGSRTDFTLTISSLQPEDFATYYCQQTNEDPYTFGQGTKVEIKRTVAAPSVFIFPPSDEQLKSGTASVVCLLNNFYPREAKVQWKVDNALQSGNSQESVTEQDSKDSTYSLSSTLTLSKADYEKHKVYACEVTHQGLSSPVTKSFNRGEC | – | 9.40 % of dose/tissue | 63.61 | 7.0 % of dose/tissue | 77.4 | –
5 | Ex-No 106, conjugate of Fab^5 (structure given only as drawing CHEM-US-00164) (Fab, V domains shown, labeling may sit on this chain; sites not stated; low molecular weight molecule (MW 1380) bound to the Fab, sites and chain not stated; 1-3 per Fab by MS; Gln 1 pyroglutamic acid as Fab^5 is defined in paragraph 370) VH: QVQLVQSGAEVKKPGASVKVSCKASGYTFTNYGLSWVRQAPGQGLEWMGENHPGSGIIYHNEKFRGRVTLTADRSTSTAYMELSSLRSEDTAVYYCARSSGTRGFDYWGQGTLVTVSS VL: DVVMTQTPLSLSVTPGQPASISCRSSQSIVHSNGNTYLEWYLQKPGQSPQLLIYRVSNRFSGVPDRFSGSGSGTDFTLKISRVEAEDVGVYYCFQGSHGPWTFGQGTKLEIKR | 0.1 | – | – | – | – | –
6 | Ex-No 110, conjugate of Fab^5 (structure given only as drawing CHEM-US-00167) (Fab, V domains shown, labeling may sit on this chain; sites not stated; low molecular weight molecule (MW 1201) bound to the Fab, sites and chain not stated; 1-2 per Fab by MS; Gln 1 pyroglutamic acid as Fab^5 is defined in paragraph 370) VH: QVQLVQSGAEVKKPGASVKVSCKASGYTFTNYGLSWVRQAPGQGLEWMGENHPGSGIIYHNEKFRGRVTLTADRSTSTAYMELSSLRSEDTAVYYCARSSGTRGFDYWGQGTLVTVSS VL: DVVMTQTPLSLSVTPGQPASISCRSSQSIVHSNGNTYLEWYLQKPGQSPQLLIYRVSNRFSGVPDRFSGSGSGTDFTLKISRVEAEDVGVYYCFQGSHGPWTFGQGTKLEIKR | 0.19 | – | – | – | – | –
7 | Ex-No 109, conjugate of Fab^5 (structure given only as drawing CHEM-US-00166) (Fab, V domains shown, labeling may sit on this chain; sites not stated; low molecular weight molecule (MW 1216) bound to the Fab, sites and chain not stated; 1-2 per Fab by MS; Gln 1 pyroglutamic acid as Fab^5 is defined in paragraph 370) VH: QVQLVQSGAEVKKPGASVKVSCKASGYTFTNYGLSWVRQAPGQGLEWMGENHPGSGIIYHNEKFRGRVTLTADRSTSTAYMELSSLRSEDTAVYYCARSSGTRGFDYWGQGTLVTVSS VL: DVVMTQTPLSLSVTPGQPASISCRSSQSIVHSNGNTYLEWYLQKPGQSPQLLIYRVSNRFSGVPDRFSGSGSGTDFTLKISRVEAEDVGVYYCFQGSHGPWTFGQGTKLEIKR | 0.08 | – | – | – | – | –

The next lines start with results.

Row | EC50 [4] [nM] | Molecule | Renal residual amount (tumor-bearing mice) % of dose/tissue [1] | Renal residual amount (tumor-bearing mice) Proportion of decrease [1] [%] | % of dose/tissue (amount of Gd contained per kidney) [2] | Proportion of decrease (amount of Gd contained in the kidneys) [2] [%] | other results
8 | 0.19 | [Gd/DOTA-[2,5-(1,2,3,4-tetrahydroisoquinoline)]-C(═O)-Met-Gly-Lys*-C(═S)-NH-(1,4-Ph)-NH-C(═S)]p-Fab^5 (Fab, V domains shown, labeling may sit on this chain; sites not stated; labeling portion (MW 1228) on amino groups of the Fab, sites and chain not stated; 1-2 per Fab by MS; Gln 1 pyroglutamic acid as Fab^5 is defined in paragraph 370) VH: QVQLVQSGAEVKKPGASVKVSCKASGYTFTNYGLSWVRQAPGQGLEWMGENHPGSGIIYHNEKFRGRVTLTADRSTSTAYMELSSLRSEDTAVYYCARSSGTRGFDYWGQGTLVTVSS VL: DVVMTQTPLSLSVTPGQPASISCRSSQSIVHSNGNTYLEWYLQKPGQSPQLLIYRVSNRFSGVPDRFSGSGSGTDFTLKISRVEAEDVGVYYCFQGSHGPWTFGQGTKLEIKR | – | – | – | – | –
9 | 0.09 | [Gd/DOTA-NH-CH2-(1,4-Ph)-NH-C(═O)-Met-Ile-NH-(CH2)2-Z1(#S)]p-Fab^5 (Fab, V domains shown, labeling may sit on this chain; sites not stated; labeling portion (MW 1175) bound via 2-iminothiolane-treated amino groups of the Fab, sites and chain not stated; 1-3 per Fab by MS; Gln 1 pyroglutamic acid as Fab^5 is defined in paragraph 370) VH: QVQLVQSGAEVKKPGASVKVSCKASGYTFTNYGLSWVRQAPGQGLEWMGENHPGSGIIYHNEKFRGRVTLTADRSTSTAYMELSSLRSEDTAVYYCARSSGTRGFDYWGQGTLVTVSS VL: DVVMTQTPLSLSVTPGQPASISCRSSQSIVHSNGNTYLEWYLQKPGQSPQLLIYRVSNRFSGVPDRFSGSGSGTDFTLKISRVEAEDVGVYYCFQGSHGPWTFGQGTKLEIKR | – | – | – | – | –
10 | 0.16 | Ex-No 111, conjugate of Fab^5 (structure given only as drawing CHEM-US-00168) (Fab, V domains shown, labeling may sit on this chain; sites not stated; low molecular weight molecule (MW 1391) bound to the Fab, sites and chain not stated; 1-2 per Fab by MS; Gln 1 pyroglutamic acid as Fab^5 is defined in paragraph 370) VH: QVQLVQSGAEVKKPGASVKVSCKASGYTFTNYGLSWVRQAPGQGLEWMGENHPGSGIIYHNEKFRGRVTLTADRSTSTAYMELSSLRSEDTAVYYCARSSGTRGFDYWGQGTLVTVSS VL: DVVMTQTPLSLSVTPGQPASISCRSSQSIVHSNGNTYLEWYLQKPGQSPQLLIYRVSNRFSGVPDRFSGSGSGTDFTLKISRVEAEDVGVYYCFQGSHGPWTFGQGTKLEIKR | – | – | – | – | –
